The data set relates to Saccharomyces cerevisiae. The data set is described as follows: transcriptional activation domain activity (GFP:mCherry ratio, weighted mean of sorted bins, harmonized to initial dataset scale) (arbitrary fluorescence ratio units); higher = stronger transcriptional activation. Particulars: beta-estradiol 1 µM; induction time 4 h. Put shortly: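 Barcoded protein tiles fused to an estradiol-inducible synthetic transcription factor were integrated at the yeast URA3 locus, in diploids carrying a GFP reporter. Cultures were diluted 1:5 into SC with 1 uM beta-estradiol, held 4 hours at 30 °C, sorted into 8 bins by GFP:mCherry ratio, and barcodes sequenced. Tiles under 50 reads were discarded. Activation activity is the read-weighted mean of bin median fluorescence, averaged across barcodes, then linearly mapped onto the initial dataset scale.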

These results are taken from the supplement of paper PMC12636428.

In the case of “PNSSTSMDWLDNVIYTNRFVSGDDGSNSKTKNLDSNMFSNDFNFENQFDEQVS”, the “transcriptional activation domain activity” value was found to be 91700.

For the sequence “PEPVAAPAPANDGFSEVQHNRGGRGRGGQYQGEGRGGYRGRGRGGPRGGGEFR”, the “transcriptional activation domain activity” value stood at 24500.

Consider “MDESDGERGGGYGVFFLLFFFFFFLSFLFSFWLFLLFTFVLISFFGAITLLKE”, for which the “transcriptional activation domain activity” value came out at 25600.

“GGVSRIRQGERQGAGAGGAEGKSRKGAAAGRGKGGEQGGERGGSREGKGGGAG”: the “transcriptional activation domain activity” value amounted to 37500.

Turning to “EYMGKETGSHHLGREGEEKTYAVRRDYESRNRVALTPERNAVEIVRVRTQAAP”, the “transcriptional activation domain activity” value was determined as 19700.

Turning to “MRQCCRCGDALKRCVILAVIAFGSVPPVYVGLVACARCRVWLFSPGLLYLKWF”, the “transcriptional activation domain activity” value came to 55500.

For the sequence “LAEVILLPDLCGFCCFSMRFVVLLDLIGTLTLPVTCLYLIYLIYVMASGNGPF”, the “transcriptional activation domain activity” value worked out at 50300.

Turning to “KKPAAKAKAGPSKANGEAAANGKGEEKEQEKEEAPKEKFKAAKLADPAAPGSK”, the “transcriptional activation domain activity” value worked out at 31200.

Regarding “VPLLDSNFISLNSNPLLYIQNQNPNSNSSVKVSRSQTFEPSKELIDLVFPWLS”, the “transcriptional activation domain activity” value was 122000.

For the sequence “KGRGGGKGRGGGKERGGGKGRGGEGEGEGEGEREGGGRGKERGREGEREGERG”, the “transcriptional activation domain activity” value is 21800.

As to “QESIPHQVGFSTPQLTAQQLIENAIESGVVDLETLDLPPFLSLDGLPPASSSA”, the “transcriptional activation domain activity” value came out at 116000.

Regarding “MLTEVLEYCYVHGKKAYVLFNILQHVLDCHDYISFTHQLVLVMKYAKYQYVIA”, the “transcriptional activation domain activity” value amounted to 55100.

With “MHCRDIMRFNEMELAKLRLLLGSNCQALRNTASLLSRNLACSKIIYLSVRLGE”, the “transcriptional activation domain activity” value turned out to be 21000.

For “SLQLLYFMPVRYYTYHKRGYHYFLADLCYFVNVLLLLSIWIFPNSRRLMISTY”, the “transcriptional activation domain activity” value worked out at 65100.

On to “MGRVGGLFIMEGCLCVYRLLLYPSSCVWVSDTRGWLWLWWLWWWVVVVVWGVC”, for which the “transcriptional activation domain activity” value was determined as 44600.

On to “AEHVDLVGCPVHVMTRFWHLYLPAFTLHTVLYIFTLIRVLNCENSPQALLIRR”, for which the “transcriptional activation domain activity” value worked out at 56600.

As to “EASLKAQKDEENESEEEGEGEEKEEGEKKEEEKKEEEKKEEEKKEDLEKLTEK”, the “transcriptional activation domain activity” value amounted to 33100.

Consider “SKDDRSISSEDKASSDKLKKSSDRADRKRKDDDDSKRSKADRKSKRDEERSSD”, for which the “transcriptional activation domain activity” value came to 29600.

As to “MYYIVIYAFLYGIKYTHWIYFLSNNLVFWFLLLHFRHSHYGSLSYRYIIDHLL”, the “transcriptional activation domain activity” value is 62500.

As to “MSMLQVQWCYVMLYFDLSTSELLYFYLYLIFYSSFLFFNLWWLLNVDDASAPA”, the “transcriptional activation domain activity” value came out at 41500.

Take “HGTHCSGTVAGKKYGVAKKAHIKAVKVLRSNGSGSMSDVVKGVEFAAESHAGE”: the “transcriptional activation domain activity” value turned out to be 38600.

For “TFTDIPVVVCHVFKQKLAKLMSNLCTMFPNAGWLVYSITSIEFQKHGVTHRND”, the “transcriptional activation domain activity” value was found to be 51100.

For “SCCMLQVISGIAMGNSCLARMNFWPVIASNFPWLLIVIINYTMFFNWMLSYFL”, the “transcriptional activation domain activity” value is 62400.

On to “RSSVGAYIKPKQQVVAVPCVGPHDSGINVLYLCAPSVEEVVMLTRFVILHLGG”, for which the “transcriptional activation domain activity” value came to 55500.

In the case of “PFPLPLLLPCPLPLLFPLSFPLLLLLPFLLPLLFTLSFTLLFMLSFPLLFMLS”, the “transcriptional activation domain activity” value was determined as 47900.

For “SILASLGFIVCGVYIWVTSHWNPQHVRDGLPLLYFSGHLRCKIYSIVLNLFVT”, the “transcriptional activation domain activity” value is 69900.

For the sequence “MREKDNDETTTGIFFLFLFLDKILLLFAWYLPWSSSQFLRLLFSLVLFWAVTL”, the “transcriptional activation domain activity” value was 45300.

Take “TDYYQAVGQHDFIKAFHDEIGPFHRKVYDNVIRKIFVLLAIILELPENYFVDR”: the “transcriptional activation domain activity” value worked out at 40900.

With “SDVEDEESSEDEAPARGKKRGRAGQAAKRRRESSLLVTVFADVLVTDVSVFVG”, the “transcriptional activation domain activity” value came to 59400.

“EMVKTESVATSSTTTTKTESEGAVVKEEKMASPSPTRVKVEKVEVKRVPTISL”: the “transcriptional activation domain activity” value was found to be 15700.

Turning to “YETRPHAHVQEAVLTNRLTSAALYNPGRIAVLPLVCVWRDERTVVVFVHLVLT”, the “transcriptional activation domain activity” value was found to be 21400.

For “MGYQPLFLCFVLSSPCLLLFPVLHILQPASSFSLLCLELFVRWVTYLLLLFSS”, the “transcriptional activation domain activity” value was 71800.

“MKVNRPFACSHEGCEKAFARKGELTKHERLHSGERPFACSHCEKAFGRSDARK”: the “transcriptional activation domain activity” value was determined as 16000.

As for “LLPLFFASIGFAIVSMILIFSSNVVCLLICPHQALSRIVASYLLRHDPKYLCA”, the “transcriptional activation domain activity” value came out at 71600.

Regarding “MFENFSLLLSSLCFFPLSLFFCFFFLFPLSSFFFFVFLLAFCFCCFRFSLFFF”, the “transcriptional activation domain activity” value was found to be 18100.

As for “LIVSWSGNYVVQHHSTRINLIDFMDSNYISHLCVYLGFSIADVCYQLTMLWMI”, the “transcriptional activation domain activity” value was found to be 77700.

For the sequence “MVFFTSSFLLGFFSFVSFRNHCSFFLMAPFLTGSELFLFFVLLFILFFFLALA”, the “transcriptional activation domain activity” value was 64900.

On to “TSCFSFLVFSFIFLSLGIMMWSLGQELLWYFVFFCLVWIFLLVVCLFIIEYSE”, for which the “transcriptional activation domain activity” value was 32500.

In the case of “AVSAGLMSGFGSSSDEDEDEEQENEEDVNNEVSYPLHKLSHRFFFGHNAPSGA”, the “transcriptional activation domain activity” value is 15700.

Consider “RLHILVGFVTVAEVTNIVFITRSSWRILIGGVERPDLILIPPATSVGTPILNG”, for which the “transcriptional activation domain activity” value came out at 35000.

Consider “LIYQKLPRVLKRPGWNFHPAVALTFSILLFAAYPLICFFNILIAWSNEVSFHN”, for which the “transcriptional activation domain activity” value came out at 54300.

Turning to “MSWPDRGYYYCLMVISLLSAKLMHLFSHFTALPLILFLLYLPTFLLLDLLVVF”, the “transcriptional activation domain activity” value is 60500.

On to “HLYQISLLLSIFVFFSQGLCRFLYYLPPVPFLTHISSTKLWVWIGLVACLTLK”, for which the “transcriptional activation domain activity” value was determined as 65800.

Consider “EPRISEGGLAALVASSPCKPAAVPILLTGPPKQAKACSSRLTGTHRPASNCKS”, for which the “transcriptional activation domain activity” value was 36500.

For the sequence “IGLCYVIILAIICFQRIYVQPYLYGIEAYMNREICLCWLVLLSLNLSTLQFNQ”, the “transcriptional activation domain activity” value is 74300.

In the case of “WTGWEGGRYLPFFFFPFFFFFATCCFSLFMILFFVFFFPGRISISFRLLLFFL”, the “transcriptional activation domain activity” value worked out at 43000.

“MITQILYLDLLHPLHCHFFFFFSFFSSLIVVSVIITRLYFFFFSHLVIFCPFL”: the “transcriptional activation domain activity” value amounted to 54600.

As to “EVMKVTPVQKQTRAGQRTRFKAFVAIGDYDGHVGLGVKCAKEVASAIRGAIIL”, the “transcriptional activation domain activity” value amounted to 48700.

Regarding “PLIQVPGYHSCGHGGLGGLCQASPTLLVISQSLFLRWWHTVHLLIEIYIWLWS”, the “transcriptional activation domain activity” value was 72200.

As to “MQTKVFVFPLFLHYLYCVIFHLLWILFGIAFIFSLVSIIIYLLIVFAHLFHFV”, the “transcriptional activation domain activity” value turned out to be 66700.

On to “ENEQDSLALDDLDRAFELVEGMDMDWMMPSHAHHSPATTATIKPRLLYSPLIH”, for which the “transcriptional activation domain activity” value was 74200.

Regarding “MSWIVWSGKHIHMSCNFIFIICPNNMKYMLSVFWRWFYKRSVIWKVWIRLFFI”, the “transcriptional activation domain activity” value was 47600.

For “MPSITLAWPDRAYFYSLLVVSLLSSKLLHVFSHLTAIPIFLFLLYFPTFLFLD”, the “transcriptional activation domain activity” value worked out at 72500.

With “GEKGRKGGAEEGERRREEGGGRRRDEGERRGEGGAGSREGTGRAGEQGERGSR”, the “transcriptional activation domain activity” value is 19200.

For the sequence “SLLLNDFSELRNGYFTSLFSLSLFLFLFAMPWTLTDITPFLMVLLFYHILFFI”, the “transcriptional activation domain activity” value is 69600.

For “MLIGTVFLICSLNLCLLFLGWAWGCIVLYLDDLNILLLSCLFTFFLCTFTFFS”, the “transcriptional activation domain activity” value is 40900.

Take “AYPTAAAVAPSTPKGKQRDVADELADLSVSKSSGSASKAKAKGSSPAAAKAAA”: the “transcriptional activation domain activity” value came to 14900.

For “MAPPTSKTTPDSPDSGAPRKRRRTALACEECRDRKRKCDGVKPVCGACKTRPA”, the “transcriptional activation domain activity” value is 21900.

For “EKGEGDKNRRGRRRGGRGRGGGGDKDKEKDKEGGGGGGRGERKTEGSGGISAQ”, the “transcriptional activation domain activity” value is 42000.

On to “VKPASRASAKPPSTTGAKKPASRASSRKPASKVGKEDKENGDAAAASAAAPDT”, for which the “transcriptional activation domain activity” value worked out at 25100.

Turning to “LLNNELFQGPSLSDEVTDWFGASEDIGLEFVEPWTELIEQRYMQCGDGDNNNF”, the “transcriptional activation domain activity” value was 151000.

Regarding “GTKKEEKGEKDKTETKKSKKSSKHNKVTSKKSSSKKSTRKAAISDADSSDDSS”, the “transcriptional activation domain activity” value came out at 35100.

With “LVMWTVILCPVFSFPDRGHGSMLFFLFKLCLAMLLTYLLAMLWFHCVYCIVVF”, the “transcriptional activation domain activity” value is 32700.

In the case of “GAATTANAGGKRNRMKVNGKYYTRLDCIGRGGSSRVYRVMAENSKFFALKRVT”, the “transcriptional activation domain activity” value turned out to be 35500.

Consider “MHYTTLLYFIYISFNFFTLILILFFNPFFFVSILSFSFLLFLFCCCSISEVVV”, for which the “transcriptional activation domain activity” value came to 64300.

With “STTLPAVDNNNLFDAVASPLADPLCDDIAGNSLPFDNSIDLDNWRNPEAQSGL”, the “transcriptional activation domain activity” value is 71400.

Regarding “HNQPVPKLLHITIYHLSTIPNDNLASFRDLLNHVHVYLLPLVSARPLFTLVTH”, the “transcriptional activation domain activity” value worked out at 78800.

Regarding “GKISKDYHHVPSLASISSLQSSQSLDQNFSIPQSPPLSSMSFNFLTGNINETN”, the “transcriptional activation domain activity” value is 43600.

“TATVQYSERRRGTVTAFNDEKGYGFAADSDPASLGNKEVLVHHKKIKSTARHK”: the “transcriptional activation domain activity” value turned out to be 24200.

Regarding “PSEKPANGAKGKGGKPRGKSGEKDNGAAEFGADPKNADKKSSNESSGAKSRPK”, the “transcriptional activation domain activity” value turned out to be 37900.

“MANHQLYTDWLYLWWIAYTNKMAGHVYIILKESLKNIPLIGWGAQFYNFIFLA”: the “transcriptional activation domain activity” value came out at 54800.

“QTWGVYKRTGGINMYIVSIWVNWFANSIIGILSWLYLWGTIETSFWFFFFLLL”: the “transcriptional activation domain activity” value stood at 75500.

For the sequence “IVMGKGTVHLCYLILSFFMYLLYSLLSHTQNILLDPLHTLFVSTFCLLHHSVF”, the “transcriptional activation domain activity” value was determined as 56200.

Take “MLHSISTYLIFPLLYLFILSFNIYHFFFFSLKIITILIFLHTFVLLLFSWRKY”: the “transcriptional activation domain activity” value amounted to 60400.
